Measured values: article PMC1533836

Target: APNAnq 100 (100-kDa aminopeptidase N from Anopheles quadrimaculatus brush border membrane) (Anopheles quadrimaculatus)
Assay: SPR

Bacillus thuringiensis Cry11Ba toxin (trypsin-activated) (from UniProt Q45730 1-724) (natural protein)
koff: 1.03e-07 s⁻¹
kon: 184 M⁻¹ s⁻¹
